Where two headings read alike, the source gives them in different places. Ends that are not written are not given here.
T1: calf thymus/mouse ribonucleotide reductase (mammalian RR) (Bos taurus, UniProt Q32LP1)
T1 sequence (Q32LP1 1-791): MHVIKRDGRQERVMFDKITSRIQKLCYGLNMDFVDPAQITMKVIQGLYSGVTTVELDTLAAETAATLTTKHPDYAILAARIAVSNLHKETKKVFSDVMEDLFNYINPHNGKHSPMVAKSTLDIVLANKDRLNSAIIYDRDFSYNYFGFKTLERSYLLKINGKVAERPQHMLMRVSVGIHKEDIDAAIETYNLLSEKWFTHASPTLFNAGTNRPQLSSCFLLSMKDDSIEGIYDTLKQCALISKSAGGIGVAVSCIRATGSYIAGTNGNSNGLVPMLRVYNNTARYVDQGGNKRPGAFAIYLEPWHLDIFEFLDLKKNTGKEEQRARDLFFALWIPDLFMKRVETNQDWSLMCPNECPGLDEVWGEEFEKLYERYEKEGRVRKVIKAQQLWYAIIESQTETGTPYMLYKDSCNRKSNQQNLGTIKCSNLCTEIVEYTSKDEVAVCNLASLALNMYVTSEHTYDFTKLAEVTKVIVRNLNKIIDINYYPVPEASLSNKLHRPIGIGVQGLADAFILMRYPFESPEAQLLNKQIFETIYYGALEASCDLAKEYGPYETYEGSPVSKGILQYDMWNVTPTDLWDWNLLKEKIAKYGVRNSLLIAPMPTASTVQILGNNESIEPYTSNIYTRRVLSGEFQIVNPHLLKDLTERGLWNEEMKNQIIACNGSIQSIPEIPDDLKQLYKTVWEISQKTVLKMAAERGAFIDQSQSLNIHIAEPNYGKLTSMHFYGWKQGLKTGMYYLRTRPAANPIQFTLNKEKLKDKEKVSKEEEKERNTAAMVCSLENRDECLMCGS

T2: human RR (Homo sapiens, UniProt P23921)
T2 sequence (P23921 1-792): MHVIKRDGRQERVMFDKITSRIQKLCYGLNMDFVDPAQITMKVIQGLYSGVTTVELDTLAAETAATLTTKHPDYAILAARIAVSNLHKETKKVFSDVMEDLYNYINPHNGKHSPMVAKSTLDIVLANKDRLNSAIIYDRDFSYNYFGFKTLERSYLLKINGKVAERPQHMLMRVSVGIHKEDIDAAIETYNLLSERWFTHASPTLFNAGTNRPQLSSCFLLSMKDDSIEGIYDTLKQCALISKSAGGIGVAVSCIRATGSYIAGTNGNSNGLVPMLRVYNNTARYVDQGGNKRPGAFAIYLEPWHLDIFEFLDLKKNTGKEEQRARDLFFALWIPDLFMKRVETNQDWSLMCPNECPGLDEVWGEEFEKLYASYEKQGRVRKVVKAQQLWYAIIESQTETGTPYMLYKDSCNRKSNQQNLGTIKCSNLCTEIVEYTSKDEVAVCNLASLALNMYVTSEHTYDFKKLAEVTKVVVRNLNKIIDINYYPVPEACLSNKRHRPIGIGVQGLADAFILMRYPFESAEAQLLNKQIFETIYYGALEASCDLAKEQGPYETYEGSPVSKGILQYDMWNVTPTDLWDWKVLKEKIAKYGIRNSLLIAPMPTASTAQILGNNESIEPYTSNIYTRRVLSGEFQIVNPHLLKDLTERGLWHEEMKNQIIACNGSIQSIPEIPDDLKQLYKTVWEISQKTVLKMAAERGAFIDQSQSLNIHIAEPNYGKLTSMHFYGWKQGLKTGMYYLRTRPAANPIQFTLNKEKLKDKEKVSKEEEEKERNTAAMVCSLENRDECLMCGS

B1: Ac-(FTLDDF) (3 pos. del.) (peptide)
peptide: Ac-FTLDDF
B2: Ac-(…) (peptide)
peptide: Ac-NSFTLDADF
B3: Ac-(…) (peptide)
peptide: Ac-AGAFTFNEDF
B4: Ac-(FTLDAAF) (peptide)
peptide: Ac-FTLDAAF
B5: Ac-(FTLDADL) (peptide)
peptide: Ac-FTLDADL
B6: Ac-(TFNEDF) (peptide)
peptide: Ac-TFNEDF
B7: Ac-(FTLDADF) (peptide)
peptide: Ac-FTLDADF
B8: Ac-(FTFNEDF) (peptide)
peptide: Ac-FTFNEDF
B9: Ac-(FTLDF) (3 & 4 pos. del.) (peptide)
peptide: Ac-FTLDF
B10: Ac-(FTLDANF) (peptide)
peptide: Ac-FTLDANF
B11: Ac-(FLDADF) (6 pos. del.) (peptide)
peptide: Ac-FLDADF
B12: Ac-(…) (peptide)
peptide: Ac-FTLDADFAA

What was measured:
[1] = target: T1, calf thymus/mouse ribonucleotide reductase (mammalian RR); test: biochemical
Description: From two to four assays were run

human RR = target: T2, human RR; details: background, "about"; cited from earlier work
calf thymus R1 (calf) [2] = target: calf thymus R1 (calf)
[3] = target: S. cerevisiae (yeast) RR (S. cerevisiae)
calf thymus R1 (calf) [4] = target: calf thymus R1 (calf); remark: listed apart in the source
calf thymus R1 (calf) [5] = target: calf thymus R1 (calf); remark: listed apart in the source

Molecule | IC50, inhibition of mammalian RR activity (calf thymus R1 (calf) [2]) | Percent RI (percent relative inhibitory potency), mammalian RR activity (calf thymus R1 (calf) [2]) | IC50, inhibition of Yeast RR activity [3] | further results
Ac-FTLDADF [Peptide 4, Ac- (FTLDADF), reference compound] |  |  |  | IC50 [1]: 8 to 20 µM; IC50 ([1]; IC50, Mammalian RR, Table 5, mammalian RR, Dixon plots): 8 to 20 µM; IC50 ([1]; IC50 on mammalian RR activity, Example 54 text, peptide bound to purified calf thymus R1 before adding recombinant mouse R2): 10 to 20 µM; IC50 (human RR): 10 to 20 µM
B1 | 322 µM | 3% |  | 
B2 |  | 100% |  | 
B3 |  |  | 25 µM | 
B4 |  | 28% |  | 
B5 | > 400 µM | < 3% |  | 
B6 |  |  | 600 µM | IC50, inhibition of mammalian RR activity (calf thymus R1 (calf) [4]): 600 µM
B7 |  | 100% | 25 µM | IC50, inhibition of mammalian RR activity (calf thymus R1 (calf) [5]): 10 to 20 µM
B8 |  |  | 25 µM | IC50, inhibition of mammalian RR activity (calf thymus R1 (calf) [4]): 100 µM
B9 |  | 2.5% |  | 
B10 |  | 23% |  | 
B11 | 412 µM | 2.5% |  | 
B12 | 500 µM | 2.1% |  | 
